Reference: article PMC3595323 (Proteins, 2013)

Molecular target: the molecule itself
Test: crystal structure

B1: Thermoplasma acidophilum nucleoside kinase Ta0880, crystallization construct (E112A, K113A, K115A) (enzyme, UniProt Q9HJT3 1-287, looked up)
chain: MRFLAYFGHLNIDVLISVDSIPREGSVNVKDLRPRFGGTAGNFAIVAQKFRIPFDLYSAVGMKTHREYLAMIESMGINTGHVEKFEDESGPICYIATDGKKQVSFMHQGAMAAWAPQLADEYEYVHFSTGPNYLDMAKSIRSKIIFDPSQEIHKYSKDELKKFHEISYMSIFNDHEYRVFREMTGLSSPKVTTIVTNGERGSSLFMDGKKYDFPAIPSSGDTVGAGDSFRAGLYLALYNRRSIEKGMIYGTIIAHHVIDDGIENFSLNMEDLERETENYRRMFTKRS
modifications: selenomethionine (expressed in selenomethionine-containing medium with suppression of normal methionine synthesis)
binding result: binds
